Assay results as given in IntAct's records for PubMed 16525507.

B1: Type II secretion system protein E (Xanthomonas campestris pv. campestris), P31742 (parent)
chain: MEQRSAETRIVEALLERRRLKDTDLVRARQLQAESGMGLLALLGRLGLVSERDHAETCAEVLGLPLVDARQLGDTPPEMLPEVQGLSLRFLKQFHLCPVGERDGRLDLWIADPYDDYAIDAVRLATGLPLLLQVGLRSEIDDLIERWYGQGRSAMGTIVETADGDASSTDDIEALRDLASEAPVIRLVNLVIQHAVELRASDIHIEPFESRLKVRYRVDGVLVEGESPPAKLTAAVISRIKIMAKLNIAERRLPQDGRIMLRVQGKELDLRVSTVPTAHGESVVMRLLDRETVVFDFYKLGFTEDFLPQFRKVLEQPHGIMLVTGPTGSGKTTTLYTALSQLNTSDVKIITVEDPVEYQIEGINQIQAKPQIGLDFANALRSIVRQDPDIIMIGEMRDLETARIAIQSALTGHLVLSTLHTNNAAGGITRLLDMGVEDYLLTSTINGILAQRLVRKLDLANAERYAASPEEIERFDLRRLQPDGEIFLYRPRATAAAPTGYLGRTTIVEFLVMNDELRRAVMRRAGMGEIEQLARKSGMRTMYEDGLSKALRGETTIEEVLRVTEDA
partner: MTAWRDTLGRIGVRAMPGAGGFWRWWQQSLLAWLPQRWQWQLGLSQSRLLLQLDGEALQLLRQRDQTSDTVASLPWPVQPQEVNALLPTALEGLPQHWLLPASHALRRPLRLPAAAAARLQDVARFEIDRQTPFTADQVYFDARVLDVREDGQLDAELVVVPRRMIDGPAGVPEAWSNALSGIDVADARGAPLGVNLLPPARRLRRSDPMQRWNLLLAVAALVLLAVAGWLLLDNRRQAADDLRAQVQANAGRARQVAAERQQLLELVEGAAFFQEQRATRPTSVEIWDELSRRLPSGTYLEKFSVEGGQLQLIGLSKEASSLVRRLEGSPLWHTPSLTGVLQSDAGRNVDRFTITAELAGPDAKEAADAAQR

Variants of: B1
Settings: with gspl_xancp pefL

Row | Variant | effect of a mutation on the interaction
1 | R504A | disrupting interaction
2 | K331M | disrupting interaction
